Paper PMC2897912 (Journal of immunology (Baltimore, Md. : 1950), 2010)

Molecular target: T1, IL-17RC-FL (murine IL-17RC, full length, unspliced, C-terminal Myc tag) (mouse, UniProt Q8K4C2 22-698)
T1 sequence (looked up): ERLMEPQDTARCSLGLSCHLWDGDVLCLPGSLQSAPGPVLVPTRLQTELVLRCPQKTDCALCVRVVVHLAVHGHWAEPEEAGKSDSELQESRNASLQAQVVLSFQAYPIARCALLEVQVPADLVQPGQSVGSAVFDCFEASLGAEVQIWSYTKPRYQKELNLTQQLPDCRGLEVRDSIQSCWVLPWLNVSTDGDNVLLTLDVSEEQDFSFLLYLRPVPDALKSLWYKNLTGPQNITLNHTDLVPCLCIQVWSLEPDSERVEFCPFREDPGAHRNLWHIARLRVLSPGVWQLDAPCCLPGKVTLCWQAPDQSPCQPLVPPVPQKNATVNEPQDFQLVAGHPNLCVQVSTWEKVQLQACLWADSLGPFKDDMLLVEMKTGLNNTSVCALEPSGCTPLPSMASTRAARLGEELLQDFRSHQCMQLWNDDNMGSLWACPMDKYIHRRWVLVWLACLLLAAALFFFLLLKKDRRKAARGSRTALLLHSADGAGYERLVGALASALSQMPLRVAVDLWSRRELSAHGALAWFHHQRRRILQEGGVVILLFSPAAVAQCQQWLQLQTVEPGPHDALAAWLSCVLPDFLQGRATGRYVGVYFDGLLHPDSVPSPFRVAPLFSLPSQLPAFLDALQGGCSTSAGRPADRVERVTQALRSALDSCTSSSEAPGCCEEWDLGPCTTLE
Test: co-IP

fold induction of co-precipitated phospho-Act1 over the 0 time point: ~6 fold
B1: CFP-tagged murine Act1, larger phosphorylated isoform (phospho-Act1) (natural protein, mouse, UniProt Q8N7N6 1-555, looked up)
chain: MNRSIPVEVDESEPFPSQLLKPIPEYSPEEELEPPAPNTRNMAPSSLSVLQCPPLKLANHQPVSQQVTCLRAKVLEEGEASFFRRHPELGKDISSCSSGASEPESELGALPPEHRFTLTEKRNRWLGSQLSAASPDTGHESDKSDPSLPNALADSFSGGQEMMPRPRPRPGPHRHRAAPDVPTIDTGYDSQPQDVLGIRQLERPLPLTSSCYLQDLPGPLRSRELPPQFELERYPMNAQLLPPHPSPQAPWNCQYYCPGGPYHHQVPHGHGYPPAAAYQQVLQPALPGQVLPGARARGPRPVQKVILNDSSPQDQEERPAQRDFSFPRLPRDQLYRPPSNGVEAPEESLDLPAELRPHGPQAPSLAAVPRPPSNPLARGTLRTSNLPEELRKVFITYSMDTAMEVVKFVNFLLVNGFQTAIDIFEDRIRGIDIIKWMERYLRDKTVMIIVAISPKYKQDVEGAESQLDEDEHGLHTKYIHRMMQIEFISQGSMNFRFIPVLFPNAKKEHVPTWLQNTHVYSWPKNKKNILLRLLREEEYVAPPRGPLPTLQVVPL
modifications: phosphorylated (removed by shrimp alkaline phosphatase; sites not stated)
